In patent US20220380444A1 one finds 50% Inhibitory Dose, classical pathway haemolysis assay and Haemolytic Units (HU), classical pathway haemolysis assay data, which are given here for two substances.

In the assay the target is mouse complement protein C5 (mouse) (UniProt P06684). Briefly: cell-based or functional assay.

monoclonal anti-C5 antibody BB5.1, sequence (VH): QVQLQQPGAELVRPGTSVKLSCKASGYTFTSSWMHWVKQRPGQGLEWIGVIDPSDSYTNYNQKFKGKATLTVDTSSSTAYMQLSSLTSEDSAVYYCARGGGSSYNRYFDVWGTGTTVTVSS
monoclonal anti-C5 antibody BB5.1, sequence (VL): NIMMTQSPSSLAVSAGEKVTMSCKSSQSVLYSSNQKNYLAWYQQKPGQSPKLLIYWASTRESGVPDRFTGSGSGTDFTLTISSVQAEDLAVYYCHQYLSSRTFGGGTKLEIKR

“Crovalimab (original name SKY59) (antibody)”: the 50% Inhibitory Dose, classical pathway haemolysis assay came out at 1860 ng/mL and the Haemolytic Units (HU), classical pathway haemolysis assay was determined as 1.4 HU.

In turn, monoclonal anti-C5 antibody BB5.1 had a 50% Inhibitory Dose, classical pathway haemolysis assay of 614 ng/mL and a Haemolytic Units (HU), classical pathway haemolysis assay of 16.3 HU.
